Laboratory results from patent US20240150489A1.

How the values were obtained:
[1] = target: CD38 on Raji-CD47KO cells (human) (UniProt P28907); assay: flow cytometry dot plot, Raji-CD47KO cells, mix of saturating Darzalex-AF647 and BEAT 38/47-60-AF488; other quadrants printed Q1 0.070, Q3 0.21, Q4 0.035
[2] = target: CD38 on Raji-CD47KO cells (human) (UniProt P28907); assay: flow cytometry dot plot, Raji-CD47KO cells, saturating Darzalex-AF647 alone; other quadrants printed Q1 0, Q2 0, Q4 0.23

percent of cells in quadrant Q2 (AF488 and AF647 double positive) [1]: 99.7%
percent of cells in quadrant Q3 (AF647 positive, AF488 negative) [2]: 99.8%
Substance: Darzalex (antibody)
